This is an account of results in article PMC10589346, “Structural basis for recruitment of TASL by SLC15A4 in human endolysosomal TLR signaling” (Nature Communications, 2023).

Data set [1] deals with the molecule itself. The experiment in a line: cryo-EM structure; SLC15A4-ALFA tag co-expressed with ALFA nanobody in HEK293F, complex purified (Strep-Tactin, SEC) in LMNG/CHS; monomeric and dimeric particles found, monomer solved at 3.25 Å.
Data set [2] concerns the target T1, human SLC15A4 with C-terminus flag-tag (co-expressed with TASL(1–20)-EGFP for cryo-EM) (human, UniProt Q8N697 1-577, N-glycosylation at N436).
T1 construct: human SLC15A4 (solute carrier family 15 member 4, PHT1), codon-optimized full-length cDNA, Uniprot Q8N697; pcDNA3.1 vector; residues 1–31 not visible in the map; also called PHT1; Solute carrier family 15 member 4; source: HEK293F, co-transfected with TASL(1–20)-EGFP, complex purified (Strep-Tactin, SEC) in LMNG/CHS; not shown: Flag, C-terminal, kept
In words: cryo-EM structure; SLC15A4-Flag and TASL(1–20)-EGFP-twin Strep co-expressed in HEK293F, complex purified by Strep-Tactin and SEC; 25 mM HEPES pH 7.4, 150 mM NaCl, 0.003% LMNG, 0.0003% CHS; 10–15 mg/ml; 3.03 Å, no symmetry imposed. The following applies: both partners purified.

Data set [3] deals with the molecule itself. The experiment in a line: cryo-EM structure; apo SLC15A4 (twin Strep-tag) from HEK293F in LMNG/CHS micelles; 25 mM HEPES pH 7.4, 150 mM NaCl; monomeric and dimeric particles found, dimer solved at 2.93 Å.

The stoichiometry N is the number of molecules, sites or subunits per partner or assembly.

T1 sequence (Q8N697 whole entry, the tested form may be a part): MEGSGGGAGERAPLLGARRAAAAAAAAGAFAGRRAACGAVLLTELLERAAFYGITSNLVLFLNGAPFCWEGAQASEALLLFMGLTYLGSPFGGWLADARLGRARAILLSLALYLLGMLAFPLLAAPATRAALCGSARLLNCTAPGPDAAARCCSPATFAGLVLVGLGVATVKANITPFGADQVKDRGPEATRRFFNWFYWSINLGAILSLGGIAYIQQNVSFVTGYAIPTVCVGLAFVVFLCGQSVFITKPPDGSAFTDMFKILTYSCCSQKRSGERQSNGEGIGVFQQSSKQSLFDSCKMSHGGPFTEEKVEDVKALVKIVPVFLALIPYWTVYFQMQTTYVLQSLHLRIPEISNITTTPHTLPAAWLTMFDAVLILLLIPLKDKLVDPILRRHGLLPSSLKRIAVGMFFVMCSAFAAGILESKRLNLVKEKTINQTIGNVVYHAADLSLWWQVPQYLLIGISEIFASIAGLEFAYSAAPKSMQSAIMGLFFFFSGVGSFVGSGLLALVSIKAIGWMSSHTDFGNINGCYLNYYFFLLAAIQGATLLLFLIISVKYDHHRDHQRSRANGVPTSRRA

B1: human SLC15A4 with the 253–303 residues replaced by an ALFA tag (natural protein)
chain: not shown
modifications: N-glycosylation at N436
notes: human SLC15A4, Uniprot Q8N697, from the start to residue 252; ALFA tag, put in place of residues 253–303 (loop between TM6 and TM7); human SLC15A4, Uniprot Q8N697, from residue 304 to the end; The complex was purified on Strep-Tactin by a 'similar protocol'; also called ALFA tagged SLC15A4; SLC15A4-ALFA tag; source: HEK293F, co-transfected with ALFA nanobody, complex purified (Strep-Tactin, SEC) …
In the case of B1, in data set [1], the binding result was “binds”.

B2: TASL(1–20)-EGFP with C-terminus twin Strep-tag (domain or fragment, human, UniProt Q9HAI6 1-20, looked up)
chain: MLSEGYLSGLEYWNDIHWSC
notes: pCAG vector; also called CXorf21; source: HEK293F, co-transfected with SLC15A4-Flag, complex purified (Strep-Tactin, SEC) in LMNG/CHS; not shown: EGFP, C-terminal, kept; twin Strep-tag, C-terminal, kept
B2: in data set [2], the “stoichiometry N” value was 1.

B3: human full-length SLC15A4 with C-terminus tandem twin Strep-tag (natural protein)
chain: not shown
modifications: N-glycosylation at N436
notes: human SLC15A4 (solute carrier family 15 member 4, PHT1), codon-optimized full-length cDNA, Uniprot Q8N697; also called apo SLC15A4; C-terminal strep-tagged SLC15A4; source: HEK293F, transfected, purified (Strep-Tactin, SEC) in LMNG/CHS; also co-expressed in HEK293F with TASL(1–20&207–301)-Flag; not shown: twin Strep-tag, C-terminal, kept
Turning to B3, the “stoichiometry N” value in data set [3] worked out at 2.
